# Measured values published in patent publication US20220324928, “Zinc Finger Protein Transcription Factors for Repressing Alpha-Synuclein Expression” (Sangamo Therapeutics, Inc., published 2022).
# B1: SNCA site 82225 (dsDNA)
# DNA 1: GAGCGCACAGGAAGGGCGGAG
# DNA 2: CTCCGCCCTTCCTGTGCGCTC
# B2: SNCA site 82190 (dsDNA)
# DNA 1: CGCTCACGAGGGTGGAAAGG
# DNA 2: CCTTTCCACCCTCGTGAGCG
# B3: SNCA site 82215 (dsDNA)
# DNA 1: AGGCGGCACCCGGGGGGGACT
# DNA 2: AGTCCCCCCCGGGTGCCGCCT
# B4: SNCA site 82090 (dsDNA)
# DNA 1: ATCCGAGATAGGGACGAGGAG
# DNA 2: CTCCTCGTCCCTATCTCGGAT
# B5: SNCA site 82294 (dsDNA)
# DNA 1: GGTCGTGGGCACCGGGAGGGG
# DNA 2: CCCCTCCCGGTGCCCACGACC
# B6: SNCA site 82092 (dsDNA)
# DNA 1: CCGAGATAGGGACGAGGAGC
# DNA 2: GCTCCTCGTCCCTATCTCGG
# B7: SNCA site 82107 (dsDNA)
# DNA 1: CAGGGAAAGCAGCGAGCGCCG
# DNA 2: CGGCGCTCGCTGCTTTCCCTG
# B8: SNCA site 82197 (dsDNA)
# DNA 1: CGTCGAATGGCCACTCCCAGT
# DNA 2: ACTGGGAGTGGCCATTCGACG
# B9: SNCA site 82150 (dsDNA)
# DNA 1: CGTCGCGGCGCTCGGTCGCTC
# DNA 2: GAGCGACCGAGCGCCGCGACG
# What was measured:
# Test in all cases: cell_activity; SNCA mRNA repression at highest dose
# Details in all cases: tags: NLS, C-terminal KOX1 KRAB
# [1] = target: ZFP-TF SBS-82225 (Artificial Sequence)
# [2] = target: ZFP-TF SBS-82190 (Artificial Sequence)
# [3] = target: ZFP-TF SBS-82215 (Artificial Sequence)
# [4] = target: ZFP-TF SBS-82090 (Artificial Sequence)
# [5] = target: ZFP-TF SBS-82294 (Artificial Sequence)
# [6] = target: ZFP-TF SBS-82092 (Artificial Sequence)
# [7] = target: ZFP-TF SBS-82107 (Artificial Sequence)
# [8] = target: ZFP-TF SBS-82197 (Artificial Sequence)
# [9] = target: ZFP-TF SBS-82150 (Artificial Sequence)
# Chain of ZFP-TF SBS-82150 (Artificial Sequence) (chain, as listed by the source): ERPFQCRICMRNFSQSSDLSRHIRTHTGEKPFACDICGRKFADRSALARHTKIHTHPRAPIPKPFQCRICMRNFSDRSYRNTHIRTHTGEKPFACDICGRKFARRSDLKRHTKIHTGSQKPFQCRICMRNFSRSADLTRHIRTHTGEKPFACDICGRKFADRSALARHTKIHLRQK
# Chain of ZFP-TF SBS-82197 (Artificial Sequence) (chain, as listed by the source): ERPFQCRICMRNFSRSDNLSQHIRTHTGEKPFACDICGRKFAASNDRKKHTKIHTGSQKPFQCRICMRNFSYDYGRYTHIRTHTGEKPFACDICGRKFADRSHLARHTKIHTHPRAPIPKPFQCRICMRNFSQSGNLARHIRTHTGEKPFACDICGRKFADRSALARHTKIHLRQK
# Chain of ZFP-TF SBS-82092 (Artificial Sequence) (chain, as listed by the source): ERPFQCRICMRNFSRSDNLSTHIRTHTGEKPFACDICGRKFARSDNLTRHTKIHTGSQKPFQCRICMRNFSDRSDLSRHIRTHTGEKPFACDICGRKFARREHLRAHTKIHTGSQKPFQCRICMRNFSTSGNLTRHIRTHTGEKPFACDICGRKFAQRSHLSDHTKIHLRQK
# Chain of ZFP-TF SBS-82090 (Artificial Sequence) (chain, as listed by the source): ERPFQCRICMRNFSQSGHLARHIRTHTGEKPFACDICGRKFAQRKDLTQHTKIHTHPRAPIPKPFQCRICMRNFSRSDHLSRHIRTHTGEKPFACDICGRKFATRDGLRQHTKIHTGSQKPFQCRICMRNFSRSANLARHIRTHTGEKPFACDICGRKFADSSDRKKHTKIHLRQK
# Chain of ZFP-TF SBS-82294 (Artificial Sequence) (chain, as listed by the source): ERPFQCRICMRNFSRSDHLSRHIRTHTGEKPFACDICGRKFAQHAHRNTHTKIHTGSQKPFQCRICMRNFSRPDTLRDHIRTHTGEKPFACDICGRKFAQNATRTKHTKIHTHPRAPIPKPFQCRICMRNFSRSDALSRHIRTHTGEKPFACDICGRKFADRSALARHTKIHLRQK
# Chain of ZFP-TF SBS-82190 (Artificial Sequence) (chain, as listed by the source): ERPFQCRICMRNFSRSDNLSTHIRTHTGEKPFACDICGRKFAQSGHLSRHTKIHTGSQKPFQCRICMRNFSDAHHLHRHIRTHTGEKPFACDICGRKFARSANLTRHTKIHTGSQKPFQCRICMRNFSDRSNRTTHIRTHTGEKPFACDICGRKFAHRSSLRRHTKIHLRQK
# Chain of ZFP-TF SBS-82215 (Artificial Sequence) (chain, as listed by the source): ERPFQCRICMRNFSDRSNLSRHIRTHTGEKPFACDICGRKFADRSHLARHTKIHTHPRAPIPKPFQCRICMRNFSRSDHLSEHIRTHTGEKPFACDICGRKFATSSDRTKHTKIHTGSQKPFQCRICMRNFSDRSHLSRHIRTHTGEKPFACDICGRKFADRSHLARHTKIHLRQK
# Chain of ZFP-TF SBS-82107 (Artificial Sequence) (chain, as listed by the source): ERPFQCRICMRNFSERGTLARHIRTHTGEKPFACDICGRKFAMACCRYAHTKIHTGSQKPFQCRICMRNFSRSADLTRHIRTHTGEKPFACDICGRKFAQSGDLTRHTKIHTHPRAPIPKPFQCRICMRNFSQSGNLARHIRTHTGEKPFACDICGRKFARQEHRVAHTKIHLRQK
# Chain of ZFP-TF SBS-82225 (Artificial Sequence) (chain, as listed by the source): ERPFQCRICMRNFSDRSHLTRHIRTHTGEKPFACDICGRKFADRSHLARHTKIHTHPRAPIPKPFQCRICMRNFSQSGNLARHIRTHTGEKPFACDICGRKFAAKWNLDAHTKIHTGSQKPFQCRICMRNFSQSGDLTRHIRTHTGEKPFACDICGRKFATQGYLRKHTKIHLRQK
binder,measurement,setting,value
B1,activity,[1],≥ 95 % repression
B2,activity,[2],≥ 95 % repression
B3,activity,[3],≥ 95 % repression
B4,activity,[4],≥ 95 % repression
B5,activity,[5],≥ 95 % repression
B6,activity,[6],≥ 95 % repression
B7,activity,[7],≥ 95 % repression
B8,activity,[8],≥ 95 % repression
B9,activity,[9],≥ 95 % repression
